Laboratory results reported in patent publication US20200376136A1.

Target: human six-transmembrane epithelial antigen of prostate 2 (STEAP2) (human) (UniProt Q8NFT2)
Assay: FACS on HEK293 cells (low STEAP2), MFI fold above unstained, average at 100-300 nM antibody

Chain of human six-transmembrane epithelial antigen of prostate 2 (STEAP2) (human) (Q8NFT2 whole entry): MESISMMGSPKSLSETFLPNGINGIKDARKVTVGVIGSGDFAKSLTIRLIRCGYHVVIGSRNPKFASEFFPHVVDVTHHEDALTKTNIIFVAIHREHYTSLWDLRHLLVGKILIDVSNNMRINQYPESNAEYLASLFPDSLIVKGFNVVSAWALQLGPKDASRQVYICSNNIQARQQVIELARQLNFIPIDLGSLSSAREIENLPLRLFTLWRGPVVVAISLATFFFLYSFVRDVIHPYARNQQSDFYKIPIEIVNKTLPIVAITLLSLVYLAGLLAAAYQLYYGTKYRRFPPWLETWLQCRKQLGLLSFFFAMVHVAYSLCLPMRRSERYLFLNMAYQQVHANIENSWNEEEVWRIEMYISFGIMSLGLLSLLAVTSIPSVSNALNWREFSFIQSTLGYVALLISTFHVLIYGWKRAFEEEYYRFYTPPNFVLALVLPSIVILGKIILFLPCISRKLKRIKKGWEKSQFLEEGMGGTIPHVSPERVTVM

Substance	Avg F.A.B (fold above background) (fold above background)
hIgG1 Isotype Control-I (antibody)	1
hIgG1 Isotype Control-II (antibody)	1.7
